T1: recombinant human C1r2s2 tetramer (human, UniProt P09871 16-688; P00736 18-705)
T1 construct: C1s and C1r co-expressed in HEK293/FreeStyle 293-F and purified from conditioned medium
T1 chain 1: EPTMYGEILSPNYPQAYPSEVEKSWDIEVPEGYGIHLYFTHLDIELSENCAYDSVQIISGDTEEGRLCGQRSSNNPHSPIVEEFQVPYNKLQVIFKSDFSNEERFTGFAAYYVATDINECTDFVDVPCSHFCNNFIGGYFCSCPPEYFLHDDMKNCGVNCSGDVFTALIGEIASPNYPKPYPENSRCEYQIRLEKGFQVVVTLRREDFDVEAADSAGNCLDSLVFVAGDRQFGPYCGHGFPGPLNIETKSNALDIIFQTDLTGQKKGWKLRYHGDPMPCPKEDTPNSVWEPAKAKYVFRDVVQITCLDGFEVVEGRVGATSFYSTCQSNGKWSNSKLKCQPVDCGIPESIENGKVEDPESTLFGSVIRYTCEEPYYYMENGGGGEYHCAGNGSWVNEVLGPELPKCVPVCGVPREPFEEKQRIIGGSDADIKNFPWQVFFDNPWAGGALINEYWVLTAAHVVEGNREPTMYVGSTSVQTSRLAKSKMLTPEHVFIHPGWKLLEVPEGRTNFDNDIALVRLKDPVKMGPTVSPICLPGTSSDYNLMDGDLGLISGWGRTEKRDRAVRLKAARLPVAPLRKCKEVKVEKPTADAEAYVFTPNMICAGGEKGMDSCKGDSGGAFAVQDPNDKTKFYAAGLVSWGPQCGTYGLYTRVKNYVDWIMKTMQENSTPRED
T1 chain 2: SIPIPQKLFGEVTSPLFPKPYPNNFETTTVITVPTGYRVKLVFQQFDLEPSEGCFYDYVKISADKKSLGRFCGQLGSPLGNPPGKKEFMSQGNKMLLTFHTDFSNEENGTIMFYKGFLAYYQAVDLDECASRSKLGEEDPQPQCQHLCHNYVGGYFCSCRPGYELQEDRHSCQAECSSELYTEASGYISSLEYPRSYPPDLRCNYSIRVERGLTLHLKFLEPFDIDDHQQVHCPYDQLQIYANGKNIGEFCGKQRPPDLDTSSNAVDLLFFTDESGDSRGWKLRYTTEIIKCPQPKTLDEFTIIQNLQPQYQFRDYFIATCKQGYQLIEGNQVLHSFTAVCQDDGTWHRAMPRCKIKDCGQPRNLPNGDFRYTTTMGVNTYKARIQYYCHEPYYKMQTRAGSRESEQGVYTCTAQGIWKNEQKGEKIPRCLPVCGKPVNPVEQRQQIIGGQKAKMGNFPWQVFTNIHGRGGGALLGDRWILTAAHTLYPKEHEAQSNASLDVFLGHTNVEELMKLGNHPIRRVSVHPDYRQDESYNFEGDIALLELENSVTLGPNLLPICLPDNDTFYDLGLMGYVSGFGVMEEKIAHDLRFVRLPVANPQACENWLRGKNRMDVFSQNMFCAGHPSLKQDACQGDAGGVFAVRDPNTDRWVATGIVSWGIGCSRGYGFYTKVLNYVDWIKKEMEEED


Assays:
[1] = target: T1, recombinant human C1r2s2 tetramer; experiment: SPR (BIACORE T200), 37 C, ratio of KD at pH 5.8 to KD at pH 7.4
Protocol: (§1) KD (dissociation constant) value of each samples at pH 7.4 and pH 5.8 are determined at 37 degrees C. using BIACORE® T200 instrument (GE Healthcare). Purified Mouse Anti-Human Ig kappa Light Chain (GE Healthcare) can be immobilized onto all flow cells of a CMS sensor chip using an amine coupling kit (GE Healthcare). 20 mM ACES, 150 mM NaCl, 1.2 mM CaCl2, 1 mg/mL BSA (IgG-free), 1 mg/mL CMD, 0.05% Tween® 20, 0.005% NaN3, pH 7.4 or pH 5.8 buffer were used as running buffer. Each antibody can be captured onto the sensor surface by Anti-Human Ig kappa Light chain. Antibody capture levels are aimed at 50 resonance unit (RU). […] Sensor surface is regenerated each cycle with, e.g., Glycine pH 2.0 (GE Healthcare). KD values were obtained using BIACORE® T200 Evaluation software, version 2.0 (GE Healthcare).

[2] = target: T1, recombinant human C1r2s2 tetramer; experiment: SPR (BIACORE T200), 37 C, Ab captured via anti-human Ig kappa, human C1r2s2 as analyte, pH 7.4
Protocol: as §1

[3] = target: T1, recombinant human C1r2s2 tetramer; experiment: SPR (BIACORE T200), 37 C, Ab captured via anti-human Ig kappa, human C1r2s2 as analyte, pH 5.8
Protocol: as §1

| KD (pH 5.8)/KD (pH 7.4) [1] | Kd [2] [nM] | Kd [3] [nM] | Binder |
| --- | --- | --- | --- |
| 72 | 4.9 | 353 | COS0637pHv7-TT91R (antibody, V domains shown) VH: QVQLVESGGGVVQPGRSLRLSCAASGFTFSAYAMNWIRQPPGKGLEWIGLIYGSGHEFYASWAEERVTISVDTSKNQFSLKLSSVTAADTAVYYCARGRSKNYNSDFHLWGQGTLVTVSS VL: DIQMTQSPSSLSASVGDRVTITCQASQILHDKKNLAWYQQKPGQPPKLLIYQASQLESGVPSRFSGSGSGTDFTLTISSLQPEDFATYYCHGEFSYSSADLNTFGQGTKVEIKR |
| 209 | 17.2 | 3600 | COS0637pHv1-TT91R (antibody, V domains shown) VH: QVQLVESGGGVVQPGRSLRLSCAASGFTFSAYAMNWIRQPPGKGLEWIGLIYGSKSTFYASWAEGRVTISVDTSKNQFSLKLSSVTAADTAVYYCARGRSKNYNSDFHLWGQGTLVTVSS VL: DIQMTQSPSSLSASVGDRVTITCQASQSLHDKKNLAWYQQKPGQPPKLLIYGASTLESGVPSRFSGSGSGTDFTLTISSLQPEDFATYYCQGEFSCSSADCNTFGQGTKVEIKR |
| 45 | 3.48 | 157 | COS0637pHv9-TT91R (antibody, V domains shown) VH: QVQLVESGGGVVQPGRSLRLSCAASGFTFSAYAMNWIRQPPGKGLEWIGLIYGSGHEFYASWAEERVTISVDTSKNQFSLKLSSVTAADTAVYYCARGRSKNYNSDFHLWGQGTLVTVSS VL: DIQMTQSPSSLSASVGDRVTITCQANQILHDKKNLAWYQQKPGQPPKLLIYQASQRESGVPSRFSGSGSGTDFTLTISSLQPEDFATYYCHGEFPYESADLNTFGQGTKVEIKR |
| 117 | 7.46 | 874 | COS0637pHv8-TT91R (antibody, V domains shown) VH: QVQLVESGGGVVQPGRSLRLSCAASGFTFSAYAMNWIRQPPGKGLEWIGLIYGSGHEFYASWAEERVTISVDTSKNQFSLKLSSVTAADTAVYYCARGRSKNYNSDFHLWGQGTLVTVSS VL: DIQMTQSPSSLSASVGDRVTITCQANQILHDKKNLAWYQQKPGQPPKLLIYGASTLESGVPSRFSGSGSGTDFTLTISSLQPEDFATYYCHGEFSYSSADLNTFGQGTKVEIKR |
| 99 | 8.23 | 811 | COS0637pHv4-TT91R (antibody, V domains shown) VH: QVQLVESGGGVVQPGRSLRLSCAASGFSFSAYAMNWIRQPPGKGLEWIGLIYGSGHEFYASWAEERVTISVDTSKNQFSLKLSSVTAADTAVYYCARGRSKNYVSGFHLWGQGTLVTVSS VL: DIQMTQSPSSLSASVGDRVTITCQASQILHDKKNLAWYQQKPGQPPKLLIYQASQLESGVPSRFSGSGSGTDFTLTISSLQPEDFATYYCHGEFSYESADLNQFGQGTKVEIKR |
| 100 | 8.39 | 838 | COS0637pHv6-TT91R (antibody, V domains shown) VH: QVQLVESGGGVVQPGRSLRLSCAASGFSFSAYAMNWIRQPPGKGLEWIGLIYGSGHEFYASWAEERVTISVDTSKNQFSLKLSSVTAADTAVYYCARGRSKNYVSGFHLWGQGTLVTVSS VL: DIQMTQSPSSLSASVGDRVTITCQAQQILHDKRNLAWYQQKPGQPPKLLIYQASQLESGVPSRFSGSGSGTDFTLTISSLQPEDFATYYCHGEFSYESADLNTFGQGTKVEIKR |
| 116 | 55 | 6390 | COS0637temp-TT91R (antibody, COS0637h with K101H in HCDR3; CH TT91R, CL SK1) heavy: QVQLVESGGGVVQPGRSLRLSCAASGFTFSAYAMNWIRQPPGKGLEWIGLIYGSGSTFYASWAKGRVTISVDTSKNQFSLKLSSVTAADTAVYYCARGRSVNYNSDFHLWGQGTLVTVSSASTKGPSVFPLAPSSKSTSGGTAALGCLVKDYFPEPVTVSWNSGALTSGVHTFPAVLQSSGLYSLSSVVTVPSSSLGTQTYICNVNHKPSNTKVDKRVEPKSCDKTHTCPPCPAPEYLGGDSVFLFPPKPKDVLMISRTPEVTCVVIDVSHEDPEVKFNWYVDGVEVHNAKTKPREEQYNSTYRVVSVLPVLHRDWLNGKEYKCKVSNKALPKPIEKTISKAKGQRREPQVYTLPPSREEMTKNQVSLTCLVKGFYPSDIAVEWESNGQPENNYKTTPPVLDSDGSFFLYSKLTVDKSRWQQGNVFSCSVLHEALHAHTTRKELSLSP light: DIQMTQSPSSLSASVGDRVTITCQASQSLHDKKNLAWYQQKPGQPPKLLIYGASTLESGVPSRFSGSGSGTDFTLTISSLQPEDFATYYCQGEFSCSSADCNTFGQGTKVEIKRTVAAPSVFIFPPSDEQLKSGTASVVCLLNNFYPREAKVQWKVDNALQSGNSQESVTEQDSKDSTYSLSSTLTLSKADYEKHKVYACEVTHQGLSSPVTKSFNRGEC |
| 14 | 25.4 | 362 | COS0637h-TT91R (antibody, human IgG1, V domains shown, Humanized COS0637cc; modified human IgG1 CH TT91R, human CL SK1) VH: QVQLVESGGGVVQPGRSLRLSCAASGFTFSAYAMNWIRQPPGKGLEWIGLIYGSGSTFYASWAKGRVTISVDTSKNQFSLKLSSVTAADTAVYYCARGRSVNYNSDFKLWGQGTLVTVSS VL: DIQMTQSPSSLSASVGDRVTITCQASQSLHDKKNLAWYQQKPGQPPKLLIYGASTLESGVPSRFSGSGSGTDFTLTISSLQPEDFATYYCQGEFSCSSADCNTFGQGTKVEIKR |
| 44 | 13.4 | 588 | COS0637pHv2-TT91R (antibody, V domains shown) VH: QVQLVESGGGVVQPGRSLRLSCAASGFRFSAYAMNWIRQPPGKGLEWIGLIYGKGSTFYASWAKERVTISVDTSKNQFSLKLSSVTAADTAVYYCARGRSVNYNSDFHLWGQGTLVTVSS VL: DIQMTQSPSSLSASVGDRVTITCQASQSLHDKKNLAWYQQKPGQPPKLLIYGASTLESGVPSRFSGSGSGTDFTLTISSLQPEDFATYYCQGEFSCSSADCNTFGQGTKVEIKR |
| 10 | 4.48 | 43.3 | COS0637cc-TT91R (antibody, human IgG1, Rabbit variable regions (chimera) with modified human IgG1 CH TT91R and modified human CL KOMC; also called COS637cc-TT91R) heavy: QSLEESGGRLVTPGTPLTLTCTASGFSLSAYAMNWVRQAPGKGLEWIGLIYGSGSTFYASWAKGRFTISKTSTTVDLKMTSLTTEDTATYFCARGRSVNYNSDFKLWGPGTLVTVSSASTKGPSVFPLAPSSKSTSGGTAALGCLVKDYFPEPVTVSWNSGALTSGVHTFPAVLQSSGLYSLSSVVTVPSSSLGTQTYICNVNHKPSNTKVDKRVEPKSCDKTHTCPPCPAPEYLGGDSVFLFPPKPKDVLMISRTPEVTCVVIDVSHEDPEVKFNWYVDGVEVHNAKTKPREEQYNSTYRVVSVLPVLHRDWLNGKEYKCKVSNKALPKPIEKTISKAKGQRREPQVYTLPPSREEMTKNQVSLTCLVKGFYPSDIAVEWESNGQPENNYKTTPPVLDSDGSFFLYSKLTVDKSRWQQGNVFSCSVLHEALHAHTTRKELSLSP light: QVLTQTPSSVSAAVGGTVTINCQASQSLHDKKNLAWYQHKPGQRPNLLIYGASTLESGVPSRFKGSGSGTEYTLTISDLECDDAAAYYCQGEFSCSSADCNTFGGGTKVEIKRTVAAPSVFIFPPSDEQLKSGTASVVCLLNNFYPREAKVQWKVDNALQSGNSQESVTEQDSKDCTYSLSSTLTLSKADYEKHKVYACEVTHQGLSSPVTKSFNRGEC |
